# From patent US20220098256A1 (TOKUSHIMA UNIVERSITY, published 2022)
# Positions of bridges follow the written chain, without caps; N, C: chain ends. Non-standard residues stand in square brackets, D forms with d. No end group written: not given here. Nle = CCCC[C@H](N)C(=O)O
# B1: cyclic PHB2 peptide 76-88aa (peptide)
# peptide: CQYPIIYDIRARPRCF[Nal]RRRR
# modifications: disulfide 1-15 (inferred); not fully specified; also: X17: an unnatural amino acid, amide bond between the added C-terminal and N-terminal residues (cyclic)
# B2: PHB2 peptide 11-90aa (peptide)
# peptide: RLPAGPRGMGTALKLLLGAGAVAYGVRESVFTVEGGHRAIFFNRIGGVQQDTILAEGLHFRIPWFQYPIIYDIRARPRKI
# B3: cyclic PHB2 peptide 11-21aa (peptide)
# peptide: CRLPAGPRG[Nle]GTCF[Nal]RRRR
# modifications: disulfide 1-13; not fully specified; also: amide bond between the added C-terminal and N-terminal residues (cyclic)
# Tests used:
# [1] = molecular target: brefeldin A-inhibited guanine nucleotide-exchange protein 3 (BIG3) (human) (UniProt Q5TH69); assay: cell-based or functional assay
# Chain of brefeldin A-inhibited guanine nucleotide-exchange protein 3 (BIG3) (human) (Q5TH69 whole entry): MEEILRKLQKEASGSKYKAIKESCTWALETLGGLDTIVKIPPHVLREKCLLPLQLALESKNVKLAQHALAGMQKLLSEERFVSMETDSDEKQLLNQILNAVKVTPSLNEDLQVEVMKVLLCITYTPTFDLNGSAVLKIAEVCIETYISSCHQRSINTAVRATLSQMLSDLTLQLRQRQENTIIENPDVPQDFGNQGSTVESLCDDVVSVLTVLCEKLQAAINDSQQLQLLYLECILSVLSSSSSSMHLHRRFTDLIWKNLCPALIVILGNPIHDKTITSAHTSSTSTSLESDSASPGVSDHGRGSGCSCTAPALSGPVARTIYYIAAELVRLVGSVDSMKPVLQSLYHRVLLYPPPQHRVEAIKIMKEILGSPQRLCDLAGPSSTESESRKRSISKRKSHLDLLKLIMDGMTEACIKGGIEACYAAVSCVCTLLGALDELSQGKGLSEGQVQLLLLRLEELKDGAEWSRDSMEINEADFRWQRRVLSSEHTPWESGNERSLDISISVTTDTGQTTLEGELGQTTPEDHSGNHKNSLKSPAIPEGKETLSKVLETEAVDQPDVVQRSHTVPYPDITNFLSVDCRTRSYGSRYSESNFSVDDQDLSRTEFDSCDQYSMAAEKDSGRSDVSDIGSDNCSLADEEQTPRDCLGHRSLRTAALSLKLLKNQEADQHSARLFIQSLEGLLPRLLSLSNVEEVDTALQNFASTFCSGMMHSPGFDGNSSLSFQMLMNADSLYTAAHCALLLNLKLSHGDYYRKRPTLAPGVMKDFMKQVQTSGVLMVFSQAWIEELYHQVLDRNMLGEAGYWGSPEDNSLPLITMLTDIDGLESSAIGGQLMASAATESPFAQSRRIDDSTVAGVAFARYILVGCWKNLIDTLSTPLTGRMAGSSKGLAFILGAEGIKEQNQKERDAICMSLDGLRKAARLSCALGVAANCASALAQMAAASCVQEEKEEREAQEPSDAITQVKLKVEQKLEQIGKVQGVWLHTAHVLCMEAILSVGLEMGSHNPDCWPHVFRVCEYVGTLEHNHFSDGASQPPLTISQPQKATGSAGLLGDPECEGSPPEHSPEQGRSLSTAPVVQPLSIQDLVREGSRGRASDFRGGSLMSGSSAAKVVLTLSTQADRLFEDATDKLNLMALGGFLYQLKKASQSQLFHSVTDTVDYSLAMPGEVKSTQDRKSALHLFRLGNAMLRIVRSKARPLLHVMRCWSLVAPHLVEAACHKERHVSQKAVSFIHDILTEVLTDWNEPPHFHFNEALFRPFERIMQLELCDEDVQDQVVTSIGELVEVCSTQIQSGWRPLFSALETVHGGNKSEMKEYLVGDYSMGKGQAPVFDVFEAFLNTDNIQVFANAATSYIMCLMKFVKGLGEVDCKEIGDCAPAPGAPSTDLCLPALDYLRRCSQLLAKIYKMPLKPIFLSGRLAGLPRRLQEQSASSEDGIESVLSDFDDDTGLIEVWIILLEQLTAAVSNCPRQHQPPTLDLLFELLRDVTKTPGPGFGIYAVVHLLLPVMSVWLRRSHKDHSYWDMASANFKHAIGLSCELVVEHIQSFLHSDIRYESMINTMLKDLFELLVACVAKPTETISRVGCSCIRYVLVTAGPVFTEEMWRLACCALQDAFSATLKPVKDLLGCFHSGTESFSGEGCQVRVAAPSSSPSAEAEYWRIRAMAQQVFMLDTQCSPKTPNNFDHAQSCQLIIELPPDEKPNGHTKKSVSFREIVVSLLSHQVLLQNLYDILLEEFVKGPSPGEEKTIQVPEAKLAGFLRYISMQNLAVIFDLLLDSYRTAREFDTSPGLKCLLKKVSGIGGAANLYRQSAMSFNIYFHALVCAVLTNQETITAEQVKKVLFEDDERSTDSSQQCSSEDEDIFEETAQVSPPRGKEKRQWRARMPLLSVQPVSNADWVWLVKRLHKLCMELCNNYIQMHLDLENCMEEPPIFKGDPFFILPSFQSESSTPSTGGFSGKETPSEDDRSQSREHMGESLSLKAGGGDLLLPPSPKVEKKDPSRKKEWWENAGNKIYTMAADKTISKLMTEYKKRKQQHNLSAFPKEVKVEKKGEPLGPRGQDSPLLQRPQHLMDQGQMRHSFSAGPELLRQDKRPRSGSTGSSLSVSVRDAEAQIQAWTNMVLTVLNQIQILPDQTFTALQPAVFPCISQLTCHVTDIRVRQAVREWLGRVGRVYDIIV
# [2] = molecular target: brefeldin A-inhibited guanine nucleotide-exchange protein 3 (BIG3) (human) (UniProt Q5TH69); assay: co-immunoprecipitation from peptide-treated MCF-7 cells, Western blotting; 10 µM each peptide
# [3] = molecular target: brefeldin A-inhibited guanine nucleotide-exchange protein 3 (BIG3) (human) (UniProt Q5TH69); assay: co-immunoprecipitation with anti-BIG3 antibody from peptide-treated MCF-7 cells, PHB2 immunoblot, band area against untreated cells; 50 µM each peptide
# [4] = molecular target: brefeldin A-inhibited guanine nucleotide-exchange protein 3 (BIG3) (human) (UniProt Q5TH69); assay: co-immunoprecipitation with anti-BIG3 antibody from peptide-treated MCF-7 cells, PHB2 immunoblot, band area against untreated cells; 50 µM peptide
# [5] = molecular target: brefeldin A-inhibited guanine nucleotide-exchange protein 3 (BIG3) (human, UniProt Q5TH69 1-2177); assay: cell-based or functional assay
# Chain of brefeldin A-inhibited guanine nucleotide-exchange protein 3 (BIG3) (Q5TH69 whole entry): as above
molecule,measurement,setting,value
combination of PHB2 peptides No. 1 (11-22aa) and No. 5 (76-90aa),"Ser39 phosphorylation of PHB2, band intensity compared to ERAP treatment",[1],70%
same,growth suppressive effect on E2-dependent growth of MCF-7,[1],88%
same,"suppression of E2-dependent growth of MCF-7, 10 µM each",[1],100%
same,"suppression of growth of MDA-MB-231, both peptides at their IC50, 96 h",[1],62%
same,inhibition ratio of the interaction between BIG3 and PHB2,[2],67%
same,inhibition ratio of the binding between BIG3 and PHB2,[3],87%
combination of cyclic PHB2 peptides 11-21aa and 76-88aa,"suppression of E2-dependent growth of MCF-7, 4 µM cyclic 11-21aa and 2 µM cyclic 76-88aa, 24 hours",[1],82%
same,"suppression ratio of E2-dependent growth of MCF-7, 4 µM cyclic 11-21aa and 2 µM cyclic 76-88aa, up to 96 hours",[1],88%
same,"suppression ratio of E2-dependent growth of MCF-7, 10 µM each, 24 h",[1],96%
same,inhibition ratio of the interaction between BIG3 and PHB2,[2],81%
PHB2 sequence-derived peptide No. 1 (11-22aa),"IC50 against growth of triple-negative breast cancer cell line MDA-MB-231, 96 h",[1],462 nM
same,"Ser39 phosphorylation of PHB2, band intensity compared to ERAP treatment",[1],40%
same,"suppression of estrogen-dependent growth of MCF-7, 10 µM, 24 h",[1],65%
same,"suppression of growth of MDA-MB-231, peptide alone at its IC50, 96 h",[1],50%
same,"suppression ratio of E2-dependent growth of MCF-7, 10 µM, 24 h",[1],63%
same,"suppression ratio of E2-dependent growth of MCF-7, peptide alone",[1],65%
same,"suppression ratio of estrogen (E2)-dependent growth of MCF-7, 10 µM, 24 h",[1],58%
same,inhibition ratio of the binding between BIG3 and PHB2,[4],64%
PHB2 sequence-derived peptide No. 5 (76-90aa),"IC50 against growth of triple-negative breast cancer cell line MDA-MB-231, 96 h",[1],273 nM
same,"Ser39 phosphorylation of PHB2, band intensity compared to ERAP treatment",[1],20%
same,"suppression of growth of MDA-MB-231, peptide alone at its IC50, 96 h",[1],50%
same,"suppression ratio of E2-dependent growth of MCF-7, 10 µM, 24 h",[1],51%
same,"suppression ratio of E2-dependent growth of MCF-7, peptide alone",[1],55%
same,"suppression ratio of estrogen (E2)-dependent growth of MCF-7, 10 µM, 24 h",[1],49%
same,"suppression ratio of estrogen-dependent growth of MCF-7, 10 µM, 24 h",[1],54%
same,inhibition ratio of the binding between BIG3 and PHB2,[4],80%
PAGPRGMGTALK (not fully specified (C-terminus)) [PHB2 sequence-derived peptide No. 39],"suppression ratio of E2-dependent growth of MCF-7, in combination with 10 µM No. 5 (76-90aa)",[5],≥ 90%
RPRKISSPTGSKDLQRRRRRRRR-NH2 [PHB2 sequence-derived peptide No. 6 (86-100aa)],"suppression ratio of E2-dependent growth of MCF-7, peptide alone",[5],~10%
TVEGGHRAIRRRRRRRR-NH2 [PHB2 sequence-derived peptide No. 2 (42-50aa)],"suppression ratio of estrogen-dependent growth of MCF-7, 10 µM, 24 h",[5],20%
QYPIAYDIRARPRKI (not fully specified (C-terminus)) [alanine-mutated PHB2 peptide No. 71],"suppression ratio of estrogen-dependent growth of MCF-7, 10 µM, 24 h",[5],38%
RLPA[dL]PR[dL]MGTARRRRRRRR (not fully specified (C-terminus)) [PHB2 peptide 11-22aa with glycines at positions 15 and 18 substituted with D-leucines],suppression ratio of estrogen-dependent growth of MCF-7,[5],~65%
RLPAAPRGMGTA (not fully specified (C-terminus)) [alanine-mutated PHB2 peptide No. 59],"suppression ratio of estrogen-dependent growth of MCF-7, 10 µM, 24 h",[5],19%
RLPAGPRAMGTA (not fully specified (C-terminus)) [alanine-mutated PHB2 peptide No. 62],"suppression ratio of estrogen-dependent growth of MCF-7, 10 µM, 24 h",[5],8%
QYPIIYAIRARPRKI (not fully specified (C-terminus)) [alanine-mutated PHB2 peptide No. 73],"suppression ratio of estrogen-dependent growth of MCF-7, 10 µM, 24 h",[5],13%
QYPIIADIRARPRKI (not fully specified (C-terminus)) [alanine-mutated PHB2 peptide No. 72],"suppression ratio of estrogen-dependent growth of MCF-7, 10 µM, 24 h",[5],37%
ESVFTVEGGHRAIRRRRRRRR-NH2 [PHB2 sequence-derived peptide No. 3 (38-50aa)],"suppression ratio of estrogen-dependent growth of MCF-7, 10 µM, 24 h",[5],17%
B1,IC50 for E2-dependent growth of MCF-7,[5],2110 nM
same,"suppression ratio of E2-dependent growth of MCF-7, 2 µM, up to 96 hours",[5],59%
same,"suppression ratio of E2-dependent growth of MCF-7, 10 µM, 24-hour treatment",[5],58%
same,"suppression ratio of E2-dependent growth of MCF-7, 10 µM, after 96 hours",[5],72%
B2,"Ser39 phosphorylation of PHB2, relative to ERAP treatment",[5],30%
same,"suppression ratio of E2-dependent growth of MCF-7, 24 h, 50 µM",[5],57%
B3,IC50 for E2-dependent growth of MCF-7,[5],4060 nM
same,"suppression ratio of E2-dependent growth of MCF-7, 4 µM, up to 96 hours",[5],41%
same,"suppression ratio of E2-dependent growth of MCF-7, 10 µM, 24-hour treatment",[5],53%
same,"suppression ratio of E2-dependent growth of MCF-7, 10 µM, after 96 hours",[5],67%
AGRLPAGPRGMG (not fully specified (C-terminus)) [PHB2 sequence-derived peptide No. 38],"suppression ratio of E2-dependent growth of MCF-7, in combination with 10 µM No. 5 (76-90aa)",[5],≥ 90%
ESVFTVEGGHRAIFFNRIGG (not fully specified (C-terminus)) [PHB2 sequence-derived peptide No. 83],"suppression ratio of estrogen-dependent growth of MCF-7, 10 µM, 24 h",[5],61%
EGGHRAIFFNRIGG (not fully specified (C-terminus)) [PHB2 sequence-derived peptide No. 82],"suppression ratio of estrogen-dependent growth of MCF-7, 10 µM, 24 h",[5],59%
GPRGMGTALKLL (not fully specified (C-terminus)) [PHB2 sequence-derived peptide No. 40],"suppression ratio of E2-dependent growth of MCF-7, in combination with 10 µM No. 5 (76-90aa)",[5],≥ 90%
DLAGRLPAGPRG (not fully specified (C-terminus)) [PHB2 sequence-derived peptide No. 37],"suppression ratio of E2-dependent growth of MCF-7, in combination with 10 µM No. 5 (76-90aa)",[5],≥ 90%
LKDLAGRLPAGP (not fully specified (C-terminus)) [PHB2 sequence-derived peptide No. 36],"suppression ratio of E2-dependent growth of MCF-7, in combination with 10 µM No. 5 (76-90aa)",[5],≥ 90%
